Measurements taken from doi:10.1101/2024.02.16.579611.

Molecular target: E. coli RNA polymerase holoenzyme Eσ^70 (His10-PPX-RNAP with σ^70) (E. coli) (UniProt P0A7Z4)
Assay: native MS

With “KorA (wild type), C-terminally His-tagged (from UniProt P03052) (natural protein)” the stoichiometry N was 2.
